Source: article PMC5216124, “Cell division orientation is coupled to cell–cell adhesion by the E-cadherin/LGN complex” (Nature Communications, 2017)

Biological target: T1, LGN-TPR:S-tag (human, UniProt P81274 8-311)
T1 construct: LGN, human, NM_013296.4, TPR repeats, amino acids 8-311; also called LGN-TPR with C-terminal S-tag; not shown: S-tag, C-terminal, kept
T1 sequence (looked up): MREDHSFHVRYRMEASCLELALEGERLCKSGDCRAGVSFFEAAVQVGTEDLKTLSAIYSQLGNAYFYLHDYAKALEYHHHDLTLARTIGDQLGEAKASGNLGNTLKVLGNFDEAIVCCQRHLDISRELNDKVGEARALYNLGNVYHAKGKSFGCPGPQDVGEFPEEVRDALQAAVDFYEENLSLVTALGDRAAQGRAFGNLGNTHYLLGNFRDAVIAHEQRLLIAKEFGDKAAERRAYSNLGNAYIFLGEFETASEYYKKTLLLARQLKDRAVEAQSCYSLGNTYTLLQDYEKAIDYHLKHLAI
Test: pull-down; in vitro competition: E-cad-cyto/LGN-TPR:S-tag complex (GST cleaved off with TEV) held on S-protein agarose by the S-tag; 100 μg NuMA (1808-1988) added, 4 °C overnight; blotted for LGN and E-cadherin
Details: both partners purified

B1: region of human NuMA containing the LGN-binding site (domain or fragment, UniProt Q14980-1 1808-1988, looked up)
chain: RRRTTQIINITMTKKLDVEEPDSANSSFYSTRSAPASQASLRATSSTQSLARLGSPDYGNSALLSLPGYRPTTRSSARRSQAGVSSGAPPGRNSFYMGTCQDEPEQLDDWNRIAELQQRNRVCPPHLKTCYPLESRPSLSLGTITDEEMKTGDPQETLRRASMQPIQIAEGTGITTRQQRK
notes: also called NuMA peptide; source: E. coli BL21 (DE3), purified (glutathione agarose, TEV cleavage, MonoQ)
binding result: binds
